The experiment addresses T1, … 3 (SEP3), in vitro produced (Arabidopsis), O22456.
T1 chain: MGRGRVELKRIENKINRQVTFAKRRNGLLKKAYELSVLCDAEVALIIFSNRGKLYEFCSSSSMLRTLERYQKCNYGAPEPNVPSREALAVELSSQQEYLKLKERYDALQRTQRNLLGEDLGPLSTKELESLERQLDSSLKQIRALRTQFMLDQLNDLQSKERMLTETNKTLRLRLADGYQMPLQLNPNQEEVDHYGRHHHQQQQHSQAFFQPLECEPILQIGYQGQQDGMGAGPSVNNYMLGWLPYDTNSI
Description: native gel or EMSA; in vitro produced proteins (wheat germ TnT) mixed with a DY-682 labelled ~100 bp DNA probe containing a CArG-box (SAUR10 probe); protein complexes read from the shifted bands on DNA; anti-FLAG antibody added for supershift where FUL-FLAG was used. Particulars: remark: other sources report otherwise. Background: In EMSA bound probe runs differently from free probe, usually more slowly.

Among the data in article PMC11602133 are stoichiometry N values, retold here.

B1: … 3 (SEP3), in vitro produced, O22456 1-251 (natural protein)
chain: MGRGRVELKRIENKINRQVTFAKRRNGLLKKAYELSVLCDAEVALIIFSNRGKLYEFCSSSSMLRTLERYQKCNYGAPEPNVPSREALAVELSSQQEYLKLKERYDALQRTQRNLLGEDLGPLSTKELESLERQLDSSLKQIRALRTQFMLDQLNDLQSKERMLTETNKTLRLRLADGYQMPLQLNPNQEEVDHYGRHHHQQQQHSQAFFQPLECEPILQIGYQGQQDGMGAGPSVNNYMLGWLPYDTNSI
What is called stoichiometry N is the number of molecules, sites or subunits per partner or assembly. With B1, the stoichiometry N came out at 2.
